# Laboratory results taken from patent US20250145684A1 (IMMATICS BIOTECHNOLOGIES, published 2025).
# B1: ALKLKVAEL (SEQ ID NO: 1) (peptide)
# peptide: ALKLKVAEL
# B2: MGKFKQCF (SEQ ID NO: 10) (peptide)
# peptide: MGKFKQCF
# B3: IMKKIRESY (SEQ ID NO: 102) (peptide)
# peptide: IMKKIRESY
# B4: IANLRVKNI (SEQ ID NO: 103) (peptide)
# peptide: IANLRVKNI
# B5: FAFGEPREL (SEQ ID NO: 104) (peptide)
# peptide: FAFGEPREL
# B6: APLKMLALV (SEQ ID NO: 105) (peptide)
# peptide: APLKMLALV
# B7: HLHLLETSI (SEQ ID NO: 106) (peptide)
# peptide: HLHLLETSI
# B8: LPKGLKDWQA (SEQ ID NO: 107) (peptide)
# peptide: LPKGLKDWQA
# B9: RSYYHPTNL (SEQ ID NO: 108) (peptide)
# peptide: RSYYHPTNL
# B10: IPASHPVLTL (SEQ ID NO: 109) (peptide)
# peptide: IPASHPVLTL
# B11: DAMTKHTL (SEQ ID NO: 110) (peptide)
# peptide: DAMTKHTL
# B12: MAPLKMLAL (SEQ ID NO: 11) (peptide)
# peptide: MAPLKMLAL
# B13: GAGLRITAPL (SEQ ID NO: 111) (peptide)
# peptide: GAGLRITAPL
# B14: NALDPLSAL (SEQ ID NO: 112) (peptide)
# peptide: NALDPLSAL
# B15: MEKGLASL (SEQ ID NO: 113) (peptide)
# peptide: MEKGLASL
# B16: PVKPKFYL (SEQ ID NO: 114) (peptide)
# peptide: PVKPKFYL
# B17: MRILKRFLAC (SEQ ID NO: 115) (peptide)
# peptide: MRILKRFLAC
# B18: FTQNPRVQL (SEQ ID NO: 116) (peptide)
# peptide: FTQNPRVQL
# B19: VGPNGFKSL (SEQ ID NO: 117) (peptide)
# peptide: VGPNGFKSL
# B20: MAFVKHLL (SEQ ID NO: 118) (peptide)
# peptide: MAFVKHLL
# B21: FQRVSSVSF (SEQ ID NO: 119) (peptide)
# peptide: FQRVSSVSF
# B22: AQRSEMVTL (SEQ ID NO: 120) (peptide)
# peptide: AQRSEMVTL
# B23: DFYLRSSAF (SEQ ID NO: 12) (peptide)
# peptide: DFYLRSSAF
# B24: YSQLSISL (SEQ ID NO: 121) (peptide)
# peptide: YSQLSISL
# B25: ESSAQPTAL (SEQ ID NO: 122) (peptide)
# peptide: ESSAQPTAL
# B26: SLLPFTLSF (SEQ ID NO: 123) (peptide)
# peptide: SLLPFTLSF
# B27: HSWTRTSV (SEQ ID NO: 124) (peptide)
# peptide: HSWTRTSV
# B28: FPLVTPLL (SEQ ID NO: 125) (peptide)
# peptide: FPLVTPLL
# B29: TAAEARLSL (SEQ ID NO: 126) (peptide)
# peptide: TAAEARLSL
# B30: EPVIRTVSI (SEQ ID NO: 127) (peptide)
# peptide: EPVIRTVSI
# B31: HFHNRHVF (SEQ ID NO: 128) (peptide)
# peptide: HFHNRHVF
# B32: HRILRLPAL (SEQ ID NO: 129) (peptide)
# peptide: HRILRLPAL
# B33: LPAPYQHQL (SEQ ID NO: 130) (peptide)
# peptide: LPAPYQHQL
# B34: EPFTRPVL (SEQ ID NO: 13) (peptide)
# peptide: EPFTRPVL
# B35: MSTKTTSI (SEQ ID NO: 131) (peptide)
# peptide: MSTKTTSI
# B36: IPIQAHQI (SEQ ID NO: 132) (peptide)
# peptide: IPIQAHQI
# B37: QATPRVRIL (SEQ ID NO: 133) (peptide)
# peptide: QATPRVRIL
# B38: DQRSRATL (SEQ ID NO: 134) (peptide)
# peptide: DQRSRATL
# B39: EYLETKRLAF (SEQ ID NO: 135) (peptide)
# peptide: EYLETKRLAF
# B40: KMFYRKDVM (SEQ ID NO: 136) (peptide)
# peptide: KMFYRKDVM
# B41: VQWKPPAL (SEQ ID NO: 137) (peptide)
# peptide: VQWKPPAL
# B42: TQHLTVATL (SEQ ID NO: 138) (peptide)
# peptide: TQHLTVATL
# B43: YGRIGISLF (SEQ ID NO: 139) (peptide)
# peptide: YGRIGISLF
# B44: IAVDKPITL (SEQ ID NO: 140) (peptide)
# peptide: IAVDKPITL
# B45: ELILKRCL (SEQ ID NO: 14) (peptide)
# peptide: ELILKRCL
# B46: AQLKLVAL (SEQ ID NO: 141) (peptide)
# peptide: AQLKLVAL
# B47: YNLIYSMCL (SEQ ID NO: 142) (peptide)
# peptide: YNLIYSMCL
# B48: DADLREQAL (SEQ ID NO: 143) (peptide)
# peptide: DADLREQAL
# B49: IEQIRAVL (SEQ ID NO: 144) (peptide)
# peptide: IEQIRAVL
# B50: MIYRKALRL (SEQ ID NO: 145) (peptide)
# peptide: MIYRKALRL
# B51: FQTAHFYL (SEQ ID NO: 146) (peptide)
# peptide: FQTAHFYL
# B52: HAMDGASHL (SEQ ID NO: 147) (peptide)
# peptide: HAMDGASHL
# B53: DVNPVSLQL (SEQ ID NO: 148) (peptide)
# peptide: DVNPVSLQL
# B54: TQKSVQVL (SEQ ID NO: 149) (peptide)
# peptide: TQKSVQVL
# Target: T1, HLA-B*08:01 (human)
# T1 construct: MHC monomer first loaded with a UV-sensitive peptide that is cleaved by UV light and exchanged for the test peptide
# Assay: UV peptide exchange ELISA
# Excerpt: Candidate peptides for T cell based therapies according to the present invention were further tested for their MHC binding capacity (affinity). The individual peptide-MHC complexes were produced by UV-ligand exchange, where a UV-sensitive peptide is cleaved upon UV-irradiation and exchanged with the peptide of interest as analyzed. Only peptide candidates that can effectively bind and stabilize the peptide-receptive MHC molecules prevent dissociation of the MHC complexes. To determine the yield of the exchange reaction, an ELISA was performed based on the detection of the light chain (β2m) of stabilized MHC complexes. The assay was performed as generally described in Rodenko et al. (Rodenko et al., 2006).
# 96 well MAXISorp plates (NUNC) were coated over night with 2 ug/ml streptavidin in PBS at room temperature, washed 4× and blocked for 1 h at 37° C. in 2% BSA containing blocking buffer. Refolded HLA-A*02:01/MLA-001 monomers served as standards, covering the range of 15-500 ng/ml. Peptide-MHC monomers of the UV-exchange reaction were diluted 100-fold in blocking buffer. Samples were incubated for 1 h at 37° C., washed four times, incubated with 2 ug/ml HRP conjugated anti-β2m for 1 h at 37° C., washed again and detected with TMB solution that is stopped with […]. Absorption was measured at 450 nm. Candidate peptides that show a high exchange yield (preferably higher than 50%, most preferred higher than 75%) are generally preferred for a generation and production of antibodies or fragments thereof, and/or T cell receptors or fragments thereof, as they show sufficient avidity to the MHC molecules and prevent dissociation of the MHC complexes.
row,Binder,peptide exchange yield [%]
1,B1,20 to 50
2,B2,50 to 75
3,B3,50 to 75
4,B4,50 to 75
5,B5,20 to 50
6,B6,20 to 50
7,B7,20 to 50
8,B8,20 to 50
9,B9,20 to 50
10,B10,20 to 50
11,B11,50 to 75
12,B12,50 to 75
13,B13,20 to 50
14,B14,20 to 50
15,B15,20 to 50
16,B16,20 to 50
17,B17,20 to 50
18,B18,20 to 50
19,B19,20 to 50
20,B20,50 to 75
21,B21,50 to 75
22,B22,20 to 50
23,B23,50 to 75
24,B24,20 to 50
25,B25,20 to 50
26,B26,20 to 50
27,B27,50 to 75

row,Binder,peptide exchange yield [%]
1,B28,50 to 75
2,B29,20 to 50
3,B30,50 to 75
4,B31,50 to 75
5,B32,50 to 75
6,B33,20 to 50
7,B34,20 to 50
8,B35,20 to 50
9,B36,50 to 75
10,B37,20 to 50
11,B38,20 to 50
12,B39,10 to 20
13,B40,50 to 75
14,B41,20 to 50
15,B42,50 to 75
16,B43,20 to 50
17,B44,20 to 50
18,B45,50 to 75
19,B46,20 to 50
20,B47,50 to 75
21,B48,20 to 50
22,B49,20 to 50
23,B50,20 to 50
24,B51,50 to 75
25,B52,20 to 50
26,B53,20 to 50
27,B54,20 to 50
